Assay results taken from patent US20130251712A1 (NATIONAL RESEARCH COUNCIL OF CANADA, published 2013).

T1: TβR2cK (R2cK), receptor-coil fusion with thrombin cleavage site, expressed alone (human)
T1 construct: Conditioned medium of 293 cells; also called TβR2cKcoil
T1 chain: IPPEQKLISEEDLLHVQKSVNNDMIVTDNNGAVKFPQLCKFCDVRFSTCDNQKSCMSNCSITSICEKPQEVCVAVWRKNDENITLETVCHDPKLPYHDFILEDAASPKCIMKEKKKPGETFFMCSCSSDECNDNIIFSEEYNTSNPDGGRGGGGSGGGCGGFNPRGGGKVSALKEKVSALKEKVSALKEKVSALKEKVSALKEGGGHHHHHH

T2: TβR2ECD-cK5 (TβR2ECD with linker cassette fused to the cK5 C-terminal construct) (human)
T2 construct: Conditioned medium of 293 cells, expressed alone; also called TβR2-K5coil with internal cys/TEV
T2 chain: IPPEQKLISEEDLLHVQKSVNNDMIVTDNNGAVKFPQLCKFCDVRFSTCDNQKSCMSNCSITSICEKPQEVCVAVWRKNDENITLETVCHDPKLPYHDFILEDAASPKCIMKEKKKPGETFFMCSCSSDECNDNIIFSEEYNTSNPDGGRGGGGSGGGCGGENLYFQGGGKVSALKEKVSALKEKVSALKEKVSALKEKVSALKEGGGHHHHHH


Legend:
[1] = biological target: T1, TβR2cK (R2cK), receptor-coil fusion …; assay: non-reducing SDS gel and western blot with anti-TβRII antibody; E/K coil dimer fixed by an interchain disulfide
Method: Plasmids encoding the R2cK and R2cE constructs were transfected separately or co-transfected into 293 cells. Conditioned media from these cells were then analyzed by western blot to detect R2cK and R2cE expression and tested for TGF-β3 neutralization (FIG. 6A-C). By themselves R2cE or R2cK were unable to neutralize TGF-β3. […] Based on their activities in FIG. 6A, these forms are non-productive, i.e. cannot neutralize TGF-β. Expressed together, R2cE+R2cK predominantly form dimers of about 80 Kd and only minimal amounts of the monomers are seen in the non-reducing gel (FIG. 6B, lane 3), indicating a covalent, inter-chain disulfide bridge has been established (Click, FIG. 6B). Subsequent cleavage of R2cE+R2cK with a sufficient amount of thrombin (++) generates an R2c+R2c dimer (about 60 Kd) that is held together by an inter-chain disulfide (in the non-reducing SDS gel) and that no longer contains the coils (Cleave, FIG. 6C). The resultant TGF-/3 trap generated by the clamp/click/cleave (CCC) process described above is depicted as a molecular model in FIG. 7.

[2] = biological target: T2, TβR2ECD-cK5 (TβR2ECD with linker …); assay: non-reducing SDS gel and western blot with anti-TβR2 antibody; E/K coil dimer fixed by an interchain disulfide

Row | binding result [1] | binding result [2] | Binder
1 | binds | – | TβR2cE (R2cE), receptor-coil fusion with thrombin cleavage site, expressed alone (receptor, Conditioned medium of 293 cells; also called TβR2cEcoil) IPPEQKLISEEDLLHVQKSVNNDMIVTDNNGAVKFPQLCKFCDVRFSTCDNQKSCMSNCSITSICEKPQEVCVAVWRKNDENITLETVCHDPKLPYHDFILEDAASPKCIMKEKKKPGETFFMCSCSSDECNDNIIFSEEYNTSNPDGGRGGGGSGGGCGGFNPRGGGEVSALEKEVSALEKEVSALEKEVSALEKEVSALEKGGGHHHHHH
2 | – | binds | TβR2ECD-cE5 (TβR2ECD with linker cassette fused to the cE5 C-terminal construct) (receptor, Secreted into conditioned medium of transfected 293 cells; tested unpurified, expressed alone; also called TβR2-E5coil with internal cys/TEV) IPPEQKLISEEDLLHVQKSVNNDMIVTDNNGAVKFPQLCKFCDVRFSTCDNQKSCMSNCSITSICEKPQEVCVAVWRKNDENITLETVCHDPKLPYHDFILEDAASPKCIMKEKKKPGETFFMCSCSSDECNDNIIFSEEYNTSNPDGGRGGGGSGGGCGGENLYFQGGGEVSALEKEVSALEKEVSALEKEVSALEKEVSALEKGGGHHHHHH
